From patent US20250195607A1 (BIOLINERX, published 2025)
Bridges are numbered along the chain shown (N, C = ends). [ ]: non-standard residue; d: D form. The star is where a group is joined. 2Nal = N[C@@H](Cc1ccc2ccccc2c1)C(=O)O; Benzoyl(4-F) = O=C(c1ccc(F)cc1)*; Cit = NC(=O)NCCC[C@H](N)C(=O)O

Biological target: CXCR4 chemokine receptor (mouse, UniProt P70658 1-359)
Test: cell-based or functional assay

Sequence of CXCR4 chemokine receptor (P70658 whole entry): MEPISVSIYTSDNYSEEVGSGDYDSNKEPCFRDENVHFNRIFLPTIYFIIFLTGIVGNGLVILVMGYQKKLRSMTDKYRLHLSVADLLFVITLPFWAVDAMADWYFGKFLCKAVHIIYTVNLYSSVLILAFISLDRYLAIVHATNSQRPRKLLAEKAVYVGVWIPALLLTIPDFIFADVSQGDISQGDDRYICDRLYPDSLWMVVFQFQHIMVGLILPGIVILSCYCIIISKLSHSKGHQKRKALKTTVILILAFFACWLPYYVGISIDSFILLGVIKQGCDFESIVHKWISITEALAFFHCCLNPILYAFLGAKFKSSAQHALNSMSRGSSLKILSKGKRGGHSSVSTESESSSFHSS

Fold increase in neutrophil number in peripheral blood (mice, 5 mg/kg s.c., 2 hours after injection, flow cytometry); BL-8040 composition of Example 1: 9.9 fold
Fold increase in neutrophil number in peripheral blood (mice, 5 mg/kg s.c., 2 hours after injection, flow cytometry); BL-8040 composition of Reference Example 1: 5.6 fold
Binder: {Benzoyl(4-F)}-RR[2Nal]CY[Cit]K[dK]PYR[Cit]CR-NH2 (disulfide 4-13 (inferred))
